This is an account of results in IntAct's records for PubMed 14597414.

B1: Prelamin-A/C (Homo sapiens), P02545 (parent)
chain: METPSQRRATRSGAQASSTPLSPTRITRLQEKEDLQELNDRLAVYIDRVRSLETENAGLRLRITESEEVVSREVSGIKAAYEAELGDARKTLDSVAKERARLQLELSKVREEFKELKARNTKKEGDLIAAQARLKDLEALLNSKEAALSTALSEKRTLEGELHDLRGQVAKLEAALGEAKKQLQDEMLRRVDAENRLQTMKEELDFQKNIYSEELRETKRRHETRLVEIDNGKQREFESRLADALQELRAQHEDQVEQYKKELEKTYSAKLDNARQSAERNSNLVGAAHEELQQSRIRIDSLSAQLSQLQKQLAAKEAKLRDLEDSLARERDTSRRLLAEKEREMAEMRARMQQQLDEYQELLDIKLALDMEIHAYRKLLEGEEERLRLSPSPTSQRSRGRASSHSSQTQGGGSVTKKRKLESTESRSSFSQHARTSGRVAVEEVDEEGKFVRLRNKSNEDQSMGNWQIKRQNGDDPLLTYRFPPKFTLKAGQVVTIWAAGAGATHSPPTDLVWKAQNTWGCGNSLRTALINSTGEEVAMRKLVRSVTVVEDDEDEDGDDLLHHHHGSHCSSSGDPAEYNLRSRTVLCGTCGQPADKASASGSGAQVGGPISSGSSASSVTVTRSYRSVGGSGGGSFGDNLVTRSYLLGNSSPRTQSPQNCSIM
partner: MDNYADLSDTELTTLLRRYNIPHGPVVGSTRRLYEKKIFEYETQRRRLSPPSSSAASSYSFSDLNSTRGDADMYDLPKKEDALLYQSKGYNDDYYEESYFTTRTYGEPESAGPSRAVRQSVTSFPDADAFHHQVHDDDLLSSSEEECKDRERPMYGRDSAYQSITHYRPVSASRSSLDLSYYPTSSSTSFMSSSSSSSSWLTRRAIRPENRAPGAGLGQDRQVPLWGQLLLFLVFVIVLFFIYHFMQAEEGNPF

In the assay the parent is B1. Particulars: with emd_human EMD.
As to R482L, the “effect of a mutation on the interaction” value is given as “decreasing interaction strength”.
